{"source": "paper PMC9717613", "about": "(Nature catalysis, 2022)", "proteins": {"B1": {"name": "HsKYNase_66-Ct6XHis (HsKYNase_66 with a C-terminal 6X-Histidine Tag) (enzyme, human)", "chain": "MEPSSLELPADTVQRIAAELKCHPTDERVALHLDEEDKLRHFRECFYIPKIQDLPPVDLSLVNKDEDAIYFNGNSLGLQPKMVKTYLEEELDKWAKIAIYGWFEGDSPWIHYDESIVGLMKDIVGANEKEIVLMNTLTVNLHLLMLSFFKPTPKRYKILLEAKAFPSDHYAIESQLQLHGLNIEESMRIIKPREGEETLRIEDILEVIEKEGDSIAVILFSGIHYYTGQHFNIPAITKAGQAKGCYVGFDLAHAVGNVELYLHDWGVDFACWCGYKYLNSSPGGIAGAFIHEKHAHTIKPALVGWFGHELSTRFKMDNKLQLIPGVCGFRCSTPPILLVCILHASLEIFKQATMKALRKKSVLLTGYLEYLIKHNYGKDKAATKKPVVNIITPSHVEERGCQLTLTFNVPNKDVFQELEKRGVVCDKRNPNGIRVAPVPLYNSFHDVYKFTNLLTSILDSAETKN", "modifications": "PLP cofactor bound as internal aldimine"}}, "target": "the molecule itself", "test": "crystal structure", "data": [{"protein": "B1", "values": [{"measurement": "stoichiometry N", "value": 2}]}]}
